B1: RHOBTB1 (parent)
chain: TFGDHHKDRRFAYGRSDVVVLCFS

Variants of: B1
Test: protein stability index of a GFP-peptide fusion (GPS, HEK-293T) (PSI 1-6); higher = more stable
Conditions: c terminus: a fixed tail appended
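Note: lentivirally expressed fusions sorted by FACS into six bins by GFP to DsRed ratio, PSI derived from sequencing read proportions per bin multiplied by bin number.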

| Variant | protein stability index |
| --- | --- |
| C22G | 2.21 |
| C22T | 1.3 |
| C22S | 1.94 |
| C22K | 2.17 |
| C22Q | 2.2 |
| C22D | 2.32 |
| C22F | 3.21 |
| C22P | 2.21 |
| C22W | 2.73 |
| C22Y | 1.07 |
| C22N | 2.23 |
| C22M | 2.88 |
| C22V | 3.33 |
| C22A | 1.72 |
| C22L | 2.42 |
| C22E | 2.2 |
| D17I | 3.11 |
| D17F | 1.51 |
| D17K | 1.63 |
| D17Q | 2.43 |
| D17N | 2.23 |
| D17M | 3.13 |
| D17P | 3.44 |
| D17R | 1.79 |

| Variant | protein stability index |
| --- | --- |
| D17T | 2.67 |
| D17C | 3.12 |
| D17W | 2.78 |
| V20D | 2.62 |
| V20E | 2.7 |
| V20Q | 1.7 |
| V20P | 2.61 |
| V20H | 1.62 |
| V20R | 1.97 |
| V20G | 2.05 |
| V20T | 1.68 |
| V20F | 2.54 |
| V20C | 1.51 |
| V20M | 1.44 |
| V20K | 1.73 |
| V20Y | 1.75 |
| V20N | 2.56 |
| V20A | 3.28 |
| V20S | 1.95 |
| V20L | 2.42 |
| F23W | 1.81 |
| F23K | 2.25 |
| F23C | 2.41 |
| F23G | 2.47 |

| Variant | protein stability index |
| --- | --- |
| F23Y | 2.22 |
| F23R | 2.38 |
| F23E | 3.12 |
| F23P | 2.16 |
| F23N | 3.08 |
| F23M | 2.59 |
| F23S | 1.66 |
| F23L | 1.42 |
| F23H | 2.6 |
| F23I | 1.41 |
| F23D | 3.1 |
| F23T | 1.68 |
| V19Y | 2.45 |
| V19S | 1.87 |
| V19D | 2.93 |
| V19W | 1.37 |
| V19Q | 1.52 |
| V19I | 2.14 |
| V19A | 2.23 |
| V19N | 2.28 |
| V19T | 2.68 |
| V19M | 2.17 |
| V19C | 1.26 |
| V19P | 1.69 |

| Variant | protein stability index |
| --- | --- |
| V19G | 1.61 |
| V19L | 2.82 |
| V19E | 1.88 |
| V19R | 1.89 |
| V19H | 2 |
| V19K | 1.92 |
| L21V | 2.86 |
| L21E | 2.79 |
| L21N | 2.44 |
| L21I | 1.49 |
| L21G | 2.23 |
| L21Q | 2.4 |
| L21D | 2.68 |
| L21S | 2.15 |
| L21W | 2.3 |
| L21C | 1.85 |
| L21P | 2.56 |
| L21F | 2.07 |
| L21T | 2.14 |
| L21K | 2.34 |
| L21A | 1.62 |
| L21R | 1.96 |
| L21M | 2.78 |
| L21H | 1.9 |

| Variant | protein stability index |
| --- | --- |
| G14E | 1.99 |
| G14I | 2.49 |
| G14T | 3.19 |
| G14H | 1.85 |
| G14P | 3.26 |
| G14K | 2.61 |
| G14D | 2.49 |
| G14F | 3.41 |
| G14N | 2.25 |
| G14S | 1.75 |
| G14V | 3.71 |
| G14R | 2.76 |
| G14Q | 3.11 |
| S16W | 2.29 |
| S16A | 4.21 |
| S16N | 2.38 |
| S16P | 3.17 |
| S16L | 2.15 |
| S16D | 2.52 |
| S16Q | 2.83 |
| S16H | 2.91 |
| S16M | 2.96 |
| S16I | 1.57 |
| S16Y | 1.23 |

| Variant | protein stability index |
| --- | --- |
| S16E | 2.07 |
| S16K | 2.43 |
| R15Y | 3.25 |
| R15A | 2.04 |
| R15E | 1.75 |
| R15I | 2.55 |
| R15Q | 2.66 |
| R15T | 2.11 |
| R15P | 1.48 |
| R15S | 2.34 |
| R15L | 2.23 |
| R15V | 4.25 |
| R15K | 2.27 |
| R15D | 2.36 |
| R15N | 1.84 |
| V18Q | 1.72 |
| V18D | 2.03 |
| V18Y | 2.2 |
| V18E | 2.19 |
| V18S | 1.46 |
| V18A | 1.74 |
| V18P | 1.58 |
| V18N | 1.57 |
| V18K | 3.01 |

| Variant | protein stability index |
| --- | --- |
| V18I | 1.42 |
| V18H | 1.88 |
| V18M | 2.06 |
| V18G | 1.68 |
| V18C | 2.01 |
| V18T | 1.54 |
| V18R | 2.92 |
| V18L | 3.53 |
| V18W | 2.21 |
| Y13H | 2.49 |
| Y13R | 1.33 |
| Y13E | 1.93 |
| Y13G | 1.46 |
| Y13S | 2.66 |
| Y13I | 3.14 |
| Y13T | 1.62 |
| Y13K | 2.4 |
| Y13M | 1.55 |
| Y13P | 1.04 |
| Y13N | 2.36 |
| Y13Q | 2.78 |
| Y13D | 2.16 |
| Y13C | 2.38 |

From the supplement of paper PMC10567573
